Laboratory results as given in publication PMC10017356 (2023).
No end group written: not given here. *: point of attachment. Dansyl = CN(C)c1cccc2c(S(=O)(=O)*)cccc12

T1: Presenilin-1 peptide (Homo sapiens)
T1 chain: Dansyl-AFHQFYI


Target: T1, Presenilin-1 peptide
Assay: stopped-flow kinetics (FRET)

Kd [µM]	Binder
5.5	X11 PDZ1 651-744 (protein) SENCKDVFIEKQKGEILGVVIVESGWGSILPTVIIANMMHGGPAEKSGKLNIGDQIMSINGTSLVGLPLSTCQSIIKGLKNQSRVKLNIVRCPP
7	X11 PDZ1-PDZ2-ΔC 651-827 (protein) SENCKDVFIEKQKGEILGVVIVESGWGSILPTVIIANMMHGGPAEKSGKLNIGDQIMSINGTSLVGLPLSTCQSIIKGLKNQSRVKLNIVRCPPVTTVLIRRPDLRYQLGFSVQNGIICSLMRGGIAERGGVRVGHRIIEINGQSVVATPHEKIVHILSNAVGEIHMKTMPAAMYRL
